Patent US7812117B2, “Vasostatin as marrow protectant” (The United States of America as represented by the …, priority 1998, dated 2010)
Like-named read-outs stand apart in the source and are kept apart here.

Tests used:
[1] = tested on: Burkitt lymphoma cells (CA46 cell line); test: Burkitt lymphoma CA46 tumor growth in athymic mice treated with vaso and/or cyclophosphamide; type: in vivo, human; details: vaso 200 μg/day s.c., cyclophosphamide 260 μg/mouse/day i.p. for 26 days; for average tumor size: buffer control 5.85; for average tumor weight: buffer control 6.75
Procedure: Groups of 6-8 athymic BALB/c nu/nu mice, 6 weeks of age, were first irradiated with 400 rad, and 24 hr later were inoculated s.c. with 8×10^6 Burkitt lymphoma cells (CA46 cell line). Beginning 24 hr after cell inoculation, one group (n=6) of mice received daily s.c. inoculations of buffer alone (100 μl); a second group (n=6) received daily s.c. inoculations of a fusion protein of maltose binding protein and vasostatin, MBP-vaso, alone (200 μg in 100 μl of buffer); a third group (n=8) received daily s.c. inoculations of buffer alone (100 μl) plus cyclophosphamide once on day 9 post cell inoculation (2.6 mg i.p. in 100 μl of buffer); a fourth group (n=8) received daily s.c. inoculations of vaso (200 μg in 100 μl of buffer) plus cyclophosphamide once on day 9 post cell inoculation (2.6 mg i.p. in 100 μl of buffer); a fifth group received daily s.c. inoculations of buffer alone (100 μl) plus daily i.p. inoculations of cyclophosphamide (260 μg/mouse in 100 μl of buffer); and a sixth group received daily s.c. inoculations of vaso (200 μg/mouse in 100 μl of buffer) plus daily i.p. inoculations of cyclophosphamide (260 μg/mouse in 100 μl of buffer).

[2] = tested on: peripheral blood white cells
Procedure: Groups of C57BL/6 mice (8 weeks of age) were treated as described in FIG. 14. FIG. 4A is a bar graph of the bone marrow cell count from mice treated for 16 days with either buffer alone (PBS, 100 μl/mouse/day s.c), Vaso (300 μg/mouse/day s.c) alone, Cytoxan (500 μg/mouse/day i.p.) alone, or vaso (300 μg/mouse/day s.c) plus Cytoxan (500 μg/mouse/day i.p.). Bone marrow was harvested on days 9 and 17 and the number of nucleated cells were counted. FIG. 4B is a bar graph of the bone marrow cell count from mice treated with for 11 days with either buffer alone (PBS, 100 μl/mouse/day s.c), Vaso (300 μg/mouse/day s.c) alone, Cytoxan (250 μg/mouse/day i.p.)×11 days plus Cytoxan 2 mg/mouse i.p. on day 11, or Cytoxan (250 μg/mouse/day i.p.)×11 days plus Cytoxan 2 mg/mouse i.p. on day 11 plus Vaso (300 μg/mouse/day s.c, days 1-16). Bone marrow cell counts were obtained on day 17. FIG. 4C is a bar graph of peripheral blood white cells counts (WBC) on day 17 from mice from the same treatment groups described in B.
FIG. 14 is a schematic diagram of different treatment groups used in the studies described herein. • Group 1: Buffer alone (100 μl/mouse/day s.c)×16 days • Group 2: Vaso alone (300 μg/mouse/day s.c)×16 days • Group 3: Cyclophosphamide (500 μg/mouse/day i.p.)×16 days Group 4: Cyclophosphamide (500 μg/mouse/day i.p.)×16 days plus vaso (300 μg/mouse/day s.c)×16 days Group 5: Cyclophosphamide (250 μg/mouse/day i.p.)×11 days plus Cyclophosphamide 2 mg/mouse i.p. on day 11 Group 6: Cyclophosphamide (250 μg/mouse/day i.p.)×11 days plus Cyclophosphamide 2 mg/mouse i.p. on day 11 plus vaso (300 μg/mouse/day s.c) days 1-16.
In addition, rather than treating the mice with vaso prior to toxin exposure as described above, mice were simultaneously inoculated with cyclophosphamide and vaso. Thus, groups of mice (n=6) received either buffer alone (100 μl s.c) daily for 16 days, vaso (300 μg/mouse s.c) alone daily for 16 days, cyclophosphamide (500 μg/mouse i.p.) either alone or together with vaso (300 μg/mouse s.c) for 16 days. Other groups of mice (n=6) were inoculated daily for 11 days with cyclophosphamide (250 μg/mouse i.p.) either alone or together with vaso (300 μg/mouse s.c).

human CD34+ cells = test: Proliferation of purified human peripheral blood CD34+ cells; type: cell-based
Procedure: FIG. 12 is a bar graph of the proliferative responses of human CD34-positive cells to vaso. Human CD34-positive cells purified (>90% purity) from the peripheral blood of a normal individual after G-CSF mobilization following standard procedures were cultured (1×10^6 cells/ml) in 24 well tissue culture plates in RPMI 1640 medium supplemented with 15% FBS. […] Vaso was added at 10 μg/ml. Cell proliferation was measured during the final 22 hr of a 5, 6 or 9 day culture by ^3H thymidine incorporation. Data is shown as the mean of triplicate cultures.
To this end, CD34+ cells were purified to a high degree of homogeneity (>90% purity) from the peripheral blood of normal donors, according to established protocols (Mavroudis et al. Bone Marrow Transplant 21:431-40, 1998).
(§1) The purified human CD34+ cells along with the negatively selected CD34− mononuclear cell population were cultured in RPMI 1640 medium containing 15% FBS. Human Stem Cell Factor (300 ng/ml) and Flt-3 ligand (300 ng/ml) were added to the culture medium. […] Thus, purified hematopoietic cells from both mouse and man proliferate in response to vaso.
Vaso, calreticulin fragment 103-163, calreticulin fragment 120-146, and calreticulin fragment 128-146 (all used at 10 μg/ml) were tested in side-by-side assays for their ability to stimulate murine bone marrow hematopoietic cells in the presence of IL-3 (20 ng/ml). […]

[3] = tested on: CD34- mononuclear cell population; test: Proliferation of negatively selected human CD34- mononuclear cells; type: cell-based; details: Stem Cell Factor and Flt-3 ligand alone or in conjunction with vaso
Procedure: as §1

[4] = tested on: human umbilical vein-derived (HUVEC) endothelial cells; details: as previously reported (Pike et al., 1998; 1999); cited from earlier work
[5] = same dose and regimen of cyclophosphamide plus vaso

**Q.** Which average tumor size [1] does the source give for `O=P1(N(CCCl)CCCl)NCCCO1` (centres unmarked) [cyclophosphamide, reference compound] here?
**A.** The average tumor size was 4.98 cm^2.

**Q.** What about the average tumor weight [1] of the same molecule?
**A.** Its average tumor weight is 4.69 g.

**Q.** And the “peripheral white blood cell counts on day 17” value ([2]; cyclophosphamide 250 μg/mouse daily for 11 days then 2 mg/mouse on day 12, alone, vs untreated controls)?
**A.** Its value is “reduction in white blood cell counts”.

**Q.** And the “average percent neutrophils on day 17” value ([2]; cyclophosphamide 250 μg/mouse daily for 11 days then 2 mg/mouse on day 12, alone, controls 10-17%)?
**A.** The value was 13.4%.

**Q.** What about the “average percent lymphocytes on day 17” value ([2]; cyclophosphamide 250 μg/mouse daily for 11 days then 2 mg/mouse on day 12, alone, controls 72-83%) of the same molecule?
**A.** The value was 62%.

B1: vaso: N-terminal domain of calreticulin (amino acids 1-180, SEQ ID NO:3); given as fusion protein with maltose binding protein, MBP-vaso (protein)
chain: EPAVYFKEQFLDGDGWTSRWIESKHKSDFGKFVLSSGKFYGDEEKDKGLQTSQDARFYALSASFEPFSNKGQTLVVQFTVKHEQNIDCGGGYVKLFPNSLDQTDMHGDSEYNIMFGPDICGPGTKKVHVIFNYKGKNVLINKDIRCKDDEFTHLYTLIVRPDNTYEVKIDNSQVESGSLE
modifications: Vasostatin
**Q.** Which results are given for B1?
**A.** cell growth of purified human CD34+ peripheral blood cells (human CD34+ cells; IL-3 alone or IL-3 together with IL-6 and Stem Cell Factor): similarly stimulated cell growth; proliferation of CD34+ cells (human CD34+ cells; vaso 10 μg/ml, Stem Cell Factor 300 ng/ml and Flt-3 ligand 300 ng/ml): responded with increased proliferation; proliferation of CD34- cell population [3]: proliferated minimally; average tumor size [1]: 4.85 cm^2; average tumor weight [1]: 3.79 g; average percent lymphocytes on day 17 [2, 5]: 25%; average percent neutrophils on day 17 [2, 5]: 63%; white blood cells in the circulation on day 17 ([2]; vaso in conjunction with cyclophosphamide 250 μg/mouse daily for 11 days then 2 mg/mouse): significantly greater number of white blood cells; proliferation of primary cultures of HUVEC [4]: consistently inhibited the proliferation
